Assay results taken from patent US11572568B2, “Regulating alkaloids” (22nd Century Limited, LLC, priority 2006, dated 2023).

Legend:
Recombinant tobacco MPO1 = target: T1, Recombinant tobacco MPO1 (Nicotiana tabacum, UniProt A0A1S4BDC4); conditions: for V/K: substrate of recombinant tobacco MPO1
T1 sequence (A0A1S4BDC4 1-790): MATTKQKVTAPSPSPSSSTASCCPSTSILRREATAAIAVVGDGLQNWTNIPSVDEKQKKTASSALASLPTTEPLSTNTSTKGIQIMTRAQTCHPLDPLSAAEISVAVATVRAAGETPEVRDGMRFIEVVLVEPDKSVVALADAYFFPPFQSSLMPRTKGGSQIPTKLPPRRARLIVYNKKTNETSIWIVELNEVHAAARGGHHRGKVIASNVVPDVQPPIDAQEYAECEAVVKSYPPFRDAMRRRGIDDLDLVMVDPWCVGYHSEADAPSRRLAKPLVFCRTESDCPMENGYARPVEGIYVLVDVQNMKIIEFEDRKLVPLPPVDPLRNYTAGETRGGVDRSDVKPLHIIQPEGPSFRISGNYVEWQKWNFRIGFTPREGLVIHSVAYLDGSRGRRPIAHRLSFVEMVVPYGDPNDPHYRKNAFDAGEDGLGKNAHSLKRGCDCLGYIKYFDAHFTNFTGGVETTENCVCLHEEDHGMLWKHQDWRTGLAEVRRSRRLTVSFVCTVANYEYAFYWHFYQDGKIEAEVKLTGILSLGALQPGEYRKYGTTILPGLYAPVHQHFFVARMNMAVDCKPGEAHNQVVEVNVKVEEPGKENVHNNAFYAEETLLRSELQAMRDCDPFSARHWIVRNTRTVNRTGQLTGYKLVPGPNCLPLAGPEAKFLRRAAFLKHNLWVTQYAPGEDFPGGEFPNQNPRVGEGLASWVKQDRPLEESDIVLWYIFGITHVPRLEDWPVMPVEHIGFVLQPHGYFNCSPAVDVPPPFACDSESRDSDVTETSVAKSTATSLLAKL
Experimental: The PCR product was first cloned into a pGEM-T Easy vector (Promega), then excised as the EcoRV-Not1 fragment, and finally cloned into the expression vector pGEX-6P (GE Healthcare). The resultant plasmid pGEX-MPO1 was introduced into the E. coli strain Rosetta (DE3) (Novagen). The recombinant bacteria were cultured in LB medium containing 50 μg/ml carbenicillin at 37° C. until the OD600 of the culture reached 0.4, IPTG and CuSO4 were added to the culture to the final concentrations of 0.1 mM and 4 mM, respectively, and the cultures were incubated at 16° C. for 16 h. Bacteria were harvested by centrifugation, suspended in a PBS buffer containing 10 mM DTT and 1 mg/ml lysozyme, incubated at 4° C. for 2 h, and then sonicated for 3 min. After centrifugation of the homogenate, the recombinant MPO1 protein fused to GST was purified from the supernatant by GSTrap HP (GE Healthcare) according to the manufacturer's protocol.

[1] = target: T2, Pig kidney diamine oxidase (Sus scrofa, UniProt Q9TRC7); conditions: in words
T2 sequence (Q9TRC7 25-755): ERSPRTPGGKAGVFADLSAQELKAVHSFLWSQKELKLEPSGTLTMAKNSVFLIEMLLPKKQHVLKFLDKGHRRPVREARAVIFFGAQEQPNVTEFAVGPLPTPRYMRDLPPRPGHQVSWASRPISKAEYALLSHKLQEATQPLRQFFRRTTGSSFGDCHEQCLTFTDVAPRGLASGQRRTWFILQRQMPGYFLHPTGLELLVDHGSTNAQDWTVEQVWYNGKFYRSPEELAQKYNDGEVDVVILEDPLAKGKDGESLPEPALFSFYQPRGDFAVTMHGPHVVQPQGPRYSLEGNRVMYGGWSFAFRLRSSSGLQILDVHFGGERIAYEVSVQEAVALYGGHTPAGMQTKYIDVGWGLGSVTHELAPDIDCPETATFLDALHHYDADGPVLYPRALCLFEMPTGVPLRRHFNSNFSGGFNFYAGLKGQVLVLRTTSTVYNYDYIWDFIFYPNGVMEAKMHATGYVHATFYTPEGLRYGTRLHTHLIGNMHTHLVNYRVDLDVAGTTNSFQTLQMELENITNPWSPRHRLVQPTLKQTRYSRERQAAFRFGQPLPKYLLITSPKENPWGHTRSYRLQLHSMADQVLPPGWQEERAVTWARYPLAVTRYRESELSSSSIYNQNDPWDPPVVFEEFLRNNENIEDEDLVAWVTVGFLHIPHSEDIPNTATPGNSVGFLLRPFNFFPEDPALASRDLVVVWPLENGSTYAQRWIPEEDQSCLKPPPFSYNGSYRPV
Experimental: (§1) Purified diamine oxidase from pig kidney was purchased from Sigma. Enzyme activities were calculated by data analysis software, Kaleida Graph (HULINKS).

NCCCN = assay: purified protein, by the assay type; conditions: other: substrate of recombinant tobacco MPO1 (GST fusion, purified from E. coli)
Experimental: as §1

NCCCCCN = assay: purified protein, by the assay type; conditions: other: substrate of recombinant tobacco MPO1 (GST fusion, purified from E. coli)
Experimental: as §1

[2] = substrate: CNCCCCN; assay: purified protein, by the assay type; conditions: other: substrate of purified pig kidney diamine oxidase (Sigma)
Experimental: as §1

[3] = substrate: NCCCCN; assay: purified protein, by the assay type; conditions: other: substrate of purified pig kidney diamine oxidase (Sigma)
[4] = substrate: NCCCCCN; assay: purified protein, by the assay type; conditions: other: substrate of purified pig kidney diamine oxidase (Sigma)
Experimental: as §1

## CNCCCN [N-Methyl-1,3-diaminopropane]
Recombinant tobacco MPO1
  V/K: 13000

## NCCCCN [Putrescine]
Recombinant tobacco MPO1
  V/K: 3600
[1]
  substrate preference: preferred putrescine over N-methylputrescine

## CCCCN [n-Butylamine]
Recombinant tobacco MPO1; substrate of recombinant tobacco MPO1 (GST fusion, purified from E. coli)
  Km: 249 ± 180 µM

## Recombinant tobacco MPO1 (Nicotiana tabacum)
NCCCN
  Km: 158 ± 100 µM
NCCCCCN
  Km: 362 ± 320 µM

B1: Pig kidney diamine oxidase (Sus scrofa) (protein)
chain: ERSPRTPGGKAGVFADLSAQELKAVHSFLWSQKELKLEPSGTLTMAKNSVFLIEMLLPKKQHVLKFLDKGHRRPVREARAVIFFGAQEQPNVTEFAVGPLPTPRYMRDLPPRPGHQVSWASRPISKAEYALLSHKLQEATQPLRQFFRRTTGSSFGDCHEQCLTFTDVAPRGLASGQRRTWFILQRQMPGYFLHPTGLELLVDHGSTNAQDWTVEQVWYNGKFYRSPEELAQKYNDGEVDVVILEDPLAKGKDGESLPEPALFSFYQPRGDFAVTMHGPHVVQPQGPRYSLEGNRVMYGGWSFAFRLRSSSGLQILDVHFGGERIAYEVSVQEAVALYGGHTPAGMQTKYIDVGWGLGSVTHELAPDIDCPETATFLDALHHYDADGPVLYPRALCLFEMPTGVPLRRHFNSNFSGGFNFYAGLKGQVLVLRTTSTVYNYDYIWDFIFYPNGVMEAKMHATGYVHATFYTPEGLRYGTRLHTHLIGNMHTHLVNYRVDLDVAGTTNSFQTLQMELENITNPWSPRHRLVQPTLKQTRYSRERQAAFRFGQPLPKYLLITSPKENPWGHTRSYRLQLHSMADQVLPPGWQEERAVTWARYPLAVTRYRESELSSSSIYNQNDPWDPPVVFEEFLRNNENIEDEDLVAWVTVGFLHIPHSEDIPNTATPGNSVGFLLRPFNFFPEDPALASRDLVVVWPLENGSTYAQRWIPEEDQSCLKPPPFSYNGSYRPV
[2]
  Km: 657 ± 240 µM
[3]
  Km: 228 ± 90 µM
[4]
  Km: 915 ± 420 µM
